Data: IntAct's records for PubMed 35512704

B1: Speckle-type POZ protein (Homo sapiens), O43791 (parent)
chain: MSRVPSPPPPAEMSSGPVAESWCYTQIKVVKFSYMWTINNFSFCREEMGEVIKSSTFSSGANDKLKWCLRVNPKGLDEESKDYLSLYLLLVSCPKSEVRAKFKFSILNAKGEETKAMESQRAYRFVQGKDWGFKKFIRRDFLLDEANGLLPDDKLTLFCEVSVVQDSVNISGQNTMNMVKVPECRLADELGGLWENSRFTDCCLCVAGQEFQAHKAILAARSPVFSAMFEHEMEESKKNRVEINDVEPEVFKEMMCFIYTGKAPNLDKMADDLLAAADKYALERLKVMCEDALCSNLSVENAAEILILADLHSADQLKTQAVDFINYHASDVLETSGWKSMVVSHPHLVAEAYRSLASAQCPFLGPPRKRLKQS
partner: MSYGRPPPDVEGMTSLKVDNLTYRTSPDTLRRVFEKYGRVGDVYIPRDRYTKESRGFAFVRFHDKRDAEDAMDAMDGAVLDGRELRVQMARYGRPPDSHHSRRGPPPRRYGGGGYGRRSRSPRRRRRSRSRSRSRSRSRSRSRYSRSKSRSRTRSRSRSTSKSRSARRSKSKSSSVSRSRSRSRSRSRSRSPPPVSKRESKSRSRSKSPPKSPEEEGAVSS
B2: Speckle-type POZ protein (Homo sapiens), O43791 (parent)
chain: B1 chain
partner: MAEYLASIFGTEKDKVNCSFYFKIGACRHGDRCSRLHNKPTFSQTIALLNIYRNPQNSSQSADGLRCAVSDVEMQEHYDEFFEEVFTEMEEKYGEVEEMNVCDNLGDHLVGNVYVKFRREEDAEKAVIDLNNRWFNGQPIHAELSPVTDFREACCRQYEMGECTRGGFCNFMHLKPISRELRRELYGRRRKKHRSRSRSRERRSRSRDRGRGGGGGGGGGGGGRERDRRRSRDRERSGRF
B3: Speckle-type POZ protein (Homo sapiens), O43791 (parent)
chain: B1 chain
partner: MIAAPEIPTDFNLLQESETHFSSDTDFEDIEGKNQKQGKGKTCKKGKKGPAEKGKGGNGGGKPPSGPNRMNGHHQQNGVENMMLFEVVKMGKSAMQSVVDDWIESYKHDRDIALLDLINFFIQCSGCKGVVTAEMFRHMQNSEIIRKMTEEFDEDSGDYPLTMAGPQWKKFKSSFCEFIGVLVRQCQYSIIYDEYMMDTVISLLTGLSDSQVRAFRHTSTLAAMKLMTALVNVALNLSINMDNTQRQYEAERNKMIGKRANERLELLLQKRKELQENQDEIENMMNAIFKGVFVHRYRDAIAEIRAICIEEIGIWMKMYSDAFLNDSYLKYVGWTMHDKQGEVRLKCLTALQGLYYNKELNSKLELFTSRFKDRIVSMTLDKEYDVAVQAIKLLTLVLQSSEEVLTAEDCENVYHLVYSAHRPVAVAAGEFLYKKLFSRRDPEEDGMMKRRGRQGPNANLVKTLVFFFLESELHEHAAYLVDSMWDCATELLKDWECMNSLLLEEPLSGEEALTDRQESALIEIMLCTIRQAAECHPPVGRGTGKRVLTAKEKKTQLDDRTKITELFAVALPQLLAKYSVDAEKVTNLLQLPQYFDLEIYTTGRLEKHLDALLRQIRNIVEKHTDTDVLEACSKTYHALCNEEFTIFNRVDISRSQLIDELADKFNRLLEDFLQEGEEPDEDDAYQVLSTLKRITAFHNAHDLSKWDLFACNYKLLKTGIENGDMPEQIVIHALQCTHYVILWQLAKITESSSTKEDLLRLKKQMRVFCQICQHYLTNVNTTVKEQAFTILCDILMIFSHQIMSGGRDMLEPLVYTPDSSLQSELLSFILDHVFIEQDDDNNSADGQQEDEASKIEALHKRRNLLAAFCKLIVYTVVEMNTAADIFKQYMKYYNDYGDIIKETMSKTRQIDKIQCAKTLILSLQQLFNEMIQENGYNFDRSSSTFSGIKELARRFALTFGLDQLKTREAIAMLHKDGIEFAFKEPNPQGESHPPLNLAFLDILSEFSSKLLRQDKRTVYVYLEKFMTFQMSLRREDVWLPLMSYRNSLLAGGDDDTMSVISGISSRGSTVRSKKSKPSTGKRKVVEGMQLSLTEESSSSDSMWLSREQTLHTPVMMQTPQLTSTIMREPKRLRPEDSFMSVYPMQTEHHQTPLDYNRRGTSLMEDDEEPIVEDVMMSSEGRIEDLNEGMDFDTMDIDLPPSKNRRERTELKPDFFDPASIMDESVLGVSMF
B4: Speckle-type POZ protein (Homo sapiens), O43791 (parent)
chain: B1 chain
partner: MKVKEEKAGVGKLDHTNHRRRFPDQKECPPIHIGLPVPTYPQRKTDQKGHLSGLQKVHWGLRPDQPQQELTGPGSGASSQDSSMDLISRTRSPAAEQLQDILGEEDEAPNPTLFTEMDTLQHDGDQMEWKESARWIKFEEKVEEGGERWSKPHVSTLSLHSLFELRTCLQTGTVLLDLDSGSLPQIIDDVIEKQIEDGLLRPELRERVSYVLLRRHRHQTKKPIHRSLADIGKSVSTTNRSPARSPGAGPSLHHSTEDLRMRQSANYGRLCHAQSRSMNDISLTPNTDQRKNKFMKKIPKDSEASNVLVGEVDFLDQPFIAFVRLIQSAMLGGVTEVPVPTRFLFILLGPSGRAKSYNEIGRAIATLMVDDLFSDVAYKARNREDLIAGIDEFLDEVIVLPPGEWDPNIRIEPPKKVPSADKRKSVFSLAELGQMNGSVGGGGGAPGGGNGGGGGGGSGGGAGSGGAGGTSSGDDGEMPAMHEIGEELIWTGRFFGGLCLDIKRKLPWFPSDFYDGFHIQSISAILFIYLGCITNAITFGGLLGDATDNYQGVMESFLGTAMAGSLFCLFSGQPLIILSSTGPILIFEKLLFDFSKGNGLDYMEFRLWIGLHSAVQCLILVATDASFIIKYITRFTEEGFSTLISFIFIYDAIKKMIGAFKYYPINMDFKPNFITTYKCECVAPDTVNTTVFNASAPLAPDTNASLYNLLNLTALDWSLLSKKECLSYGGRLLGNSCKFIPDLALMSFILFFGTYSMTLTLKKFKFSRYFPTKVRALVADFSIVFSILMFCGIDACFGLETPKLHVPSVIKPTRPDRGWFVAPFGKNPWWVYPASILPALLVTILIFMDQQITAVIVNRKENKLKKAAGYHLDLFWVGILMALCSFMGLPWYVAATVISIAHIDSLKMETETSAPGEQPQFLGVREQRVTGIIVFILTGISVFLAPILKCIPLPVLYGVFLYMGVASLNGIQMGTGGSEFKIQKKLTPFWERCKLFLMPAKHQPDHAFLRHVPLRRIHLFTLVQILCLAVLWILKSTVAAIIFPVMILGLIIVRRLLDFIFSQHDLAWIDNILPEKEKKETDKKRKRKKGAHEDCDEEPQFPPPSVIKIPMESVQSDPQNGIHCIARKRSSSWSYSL
B5: Speckle-type POZ protein (Homo sapiens), O43791 (parent)
chain: B1 chain
partner: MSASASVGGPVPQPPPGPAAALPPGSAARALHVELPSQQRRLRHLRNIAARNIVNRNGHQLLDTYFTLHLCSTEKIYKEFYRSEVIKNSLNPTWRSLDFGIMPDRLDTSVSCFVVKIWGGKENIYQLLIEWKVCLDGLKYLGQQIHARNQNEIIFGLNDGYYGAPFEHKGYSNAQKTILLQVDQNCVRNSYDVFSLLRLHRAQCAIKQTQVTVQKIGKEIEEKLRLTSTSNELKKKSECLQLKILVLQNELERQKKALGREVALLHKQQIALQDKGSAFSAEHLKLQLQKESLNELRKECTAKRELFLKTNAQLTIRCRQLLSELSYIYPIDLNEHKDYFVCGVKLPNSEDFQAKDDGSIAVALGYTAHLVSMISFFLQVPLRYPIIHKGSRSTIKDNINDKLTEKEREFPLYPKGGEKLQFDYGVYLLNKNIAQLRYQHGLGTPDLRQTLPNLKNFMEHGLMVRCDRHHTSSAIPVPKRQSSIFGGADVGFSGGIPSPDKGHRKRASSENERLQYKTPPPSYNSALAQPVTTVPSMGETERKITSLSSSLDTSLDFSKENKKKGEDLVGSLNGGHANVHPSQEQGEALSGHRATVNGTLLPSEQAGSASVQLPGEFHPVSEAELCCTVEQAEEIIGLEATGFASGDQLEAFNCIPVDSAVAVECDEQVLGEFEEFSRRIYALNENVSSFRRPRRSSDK
B6: Speckle-type POZ protein (Homo sapiens), O43791 (parent)
chain: B1 chain
partner: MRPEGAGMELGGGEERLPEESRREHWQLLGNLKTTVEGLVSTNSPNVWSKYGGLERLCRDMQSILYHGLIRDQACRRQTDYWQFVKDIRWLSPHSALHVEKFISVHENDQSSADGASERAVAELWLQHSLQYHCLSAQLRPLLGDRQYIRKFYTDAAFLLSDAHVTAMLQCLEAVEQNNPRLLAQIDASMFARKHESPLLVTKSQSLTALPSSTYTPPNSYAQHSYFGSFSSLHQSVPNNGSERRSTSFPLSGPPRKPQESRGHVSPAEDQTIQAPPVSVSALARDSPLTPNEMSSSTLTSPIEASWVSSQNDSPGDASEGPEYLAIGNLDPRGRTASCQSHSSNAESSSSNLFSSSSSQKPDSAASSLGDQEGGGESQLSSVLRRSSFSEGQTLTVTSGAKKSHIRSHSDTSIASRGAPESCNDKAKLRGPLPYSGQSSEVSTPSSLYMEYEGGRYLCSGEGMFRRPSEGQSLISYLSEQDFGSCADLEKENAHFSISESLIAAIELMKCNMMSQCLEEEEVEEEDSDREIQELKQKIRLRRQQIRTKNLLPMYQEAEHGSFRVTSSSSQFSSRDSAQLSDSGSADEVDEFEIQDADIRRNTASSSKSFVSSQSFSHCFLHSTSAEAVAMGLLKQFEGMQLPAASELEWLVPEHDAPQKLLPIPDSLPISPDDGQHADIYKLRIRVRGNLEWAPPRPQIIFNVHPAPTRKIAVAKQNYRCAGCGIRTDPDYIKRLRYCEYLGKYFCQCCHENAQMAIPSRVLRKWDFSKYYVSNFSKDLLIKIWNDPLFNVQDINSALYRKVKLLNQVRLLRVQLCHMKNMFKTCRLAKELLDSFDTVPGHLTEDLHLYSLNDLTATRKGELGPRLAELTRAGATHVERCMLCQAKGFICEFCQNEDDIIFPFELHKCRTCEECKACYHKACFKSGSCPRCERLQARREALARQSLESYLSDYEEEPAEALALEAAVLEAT

Variants of: B1
Conditions: with srsf2_human SRSF2, Q01130

| effect of a mutation on the interaction | Variant |
| --- | --- |
| with no effect | F102C |

Variants of: B1
Conditions: with srsf2_human SRSF2, Q01130
Remark: another data set of the same source

| effect of a mutation on the interaction | Variant |
| --- | --- |
| with no effect | Y87C |

Variants of: B1
Conditions: with srsf2_human SRSF2, Q01130
Remark: another data set of the same source

| effect of a mutation on the interaction | Variant |
| --- | --- |
| with no effect | F133V |

Variants of: B1
Conditions: with srsf2_human SRSF2, Q01130
Remark: another data set of the same source

| effect of a mutation on the interaction | Variant |
| --- | --- |
| with no effect | F133L |

Variants of: B2
Conditions: with U2AF1, Q01081

| effect of a mutation on the interaction | Variant |
| --- | --- |
| with no effect | Y87C |

Variants of: B2
Conditions: with U2AF1, Q01081
Remark: another data set of the same source

| effect of a mutation on the interaction | Variant |
| --- | --- |
| with no effect | F133L |

Variants of: B2
Conditions: with U2AF1, Q01081
Remark: another data set of the same source

| effect of a mutation on the interaction | Variant |
| --- | --- |
| with no effect | F133V |

Variants of: B2
Conditions: with U2AF1, Q01081
Remark: another data set of the same source

| effect of a mutation on the interaction | Variant |
| --- | --- |
| with no effect | F102C |

Variants of: B3
Conditions: with stag2_human STAG2, Q8N3U4

| effect of a mutation on the interaction | Variant |
| --- | --- |
| with no effect | F102C |

Variants of: B3
Conditions: with stag2_human STAG2, Q8N3U4
Remark: another data set of the same source

| effect of a mutation on the interaction | Variant |
| --- | --- |
| with no effect | F133V |

Variants of: B3
Conditions: with stag2_human STAG2, Q8N3U4
Remark: another data set of the same source

| effect of a mutation on the interaction | Variant |
| --- | --- |
| with no effect | F133L |

Variants of: B3
Conditions: with stag2_human STAG2, Q8N3U4
Remark: another data set of the same source

| effect of a mutation on the interaction | Variant |
| --- | --- |
| with no effect | Y87C |

Variants of: B4
Conditions: with s4a5_human SLC4A5, Q9BY07

| effect of a mutation on the interaction | Variant |
| --- | --- |
| with no effect | F133L |

Variants of: B4
Conditions: with s4a5_human SLC4A5, Q9BY07
Remark: another data set of the same source

| effect of a mutation on the interaction | Variant |
| --- | --- |
| with no effect | F133V |

Variants of: B4
Conditions: with s4a5_human SLC4A5, Q9BY07
Remark: another data set of the same source

| effect of a mutation on the interaction | Variant |
| --- | --- |
| with no effect | F102C |

Variants of: B4
Conditions: with s4a5_human SLC4A5, Q9BY07
Remark: another data set of the same source

| effect of a mutation on the interaction | Variant |
| --- | --- |
| with no effect | Y87C |

Variants of: B5
Conditions: with uvrag_human UVRAG

| effect of a mutation on the interaction | Variant |
| --- | --- |
| with no effect | F102C |

Variants of: B5
Conditions: with uvrag_human UVRAG
Remark: another data set of the same source

| effect of a mutation on the interaction | Variant |
| --- | --- |
| with no effect | F133L |

Variants of: B5
Conditions: with uvrag_human UVRAG
Remark: another data set of the same source

| effect of a mutation on the interaction | Variant |
| --- | --- |
| with no effect | F133V |

Variants of: B5
Conditions: with uvrag_human UVRAG
Remark: another data set of the same source

| effect of a mutation on the interaction | Variant |
| --- | --- |
| with no effect | Y87C |

Variants of: B6
Conditions: with rubic_human RUBCN

| effect of a mutation on the interaction | Variant |
| --- | --- |
| with no effect | Y87C |

Variants of: B6
Conditions: with rubic_human RUBCN
Remark: another data set of the same source

| effect of a mutation on the interaction | Variant |
| --- | --- |
| with no effect | F102C |

Variants of: B6
Conditions: with rubic_human RUBCN
Remark: another data set of the same source

| effect of a mutation on the interaction | Variant |
| --- | --- |
| with no effect | F133V |

Variants of: B6
Conditions: with rubic_human RUBCN
Remark: another data set of the same source

| effect of a mutation on the interaction | Variant |
| --- | --- |
| with no effect | F133L |
